Experimental data: patent EP4631959A2, “NOVEL MINIGASTRIN-DERIVED CHOLECYSTOKININ 2 RECEPTOR BINDING MOLECULES FOR IMAGING AND TARGETED RADIOTHERAPY” (priority 2022, dated 2024)

Key:
CCK-2R [1] = target: T1, CCK-2R (Rattus norvegicus, UniProt P30553); assay: Determination of IC50: CCK-2R affinity on AR4-2J cells, competition with [^177Lu]Lu-DOTA-PP-F11N; type: binding; settings: AR4-2J cells; ^natLu-labeled; read-out: IC50 [nM] (n = 3), ^natLu-labeled
T1 construct: The CCK-2R expressing rat pancreatic tumor cells AR4-2J; host or cells: AR4-2J rat pancreatic tumor cells
T1 sequence (P30553 1-452): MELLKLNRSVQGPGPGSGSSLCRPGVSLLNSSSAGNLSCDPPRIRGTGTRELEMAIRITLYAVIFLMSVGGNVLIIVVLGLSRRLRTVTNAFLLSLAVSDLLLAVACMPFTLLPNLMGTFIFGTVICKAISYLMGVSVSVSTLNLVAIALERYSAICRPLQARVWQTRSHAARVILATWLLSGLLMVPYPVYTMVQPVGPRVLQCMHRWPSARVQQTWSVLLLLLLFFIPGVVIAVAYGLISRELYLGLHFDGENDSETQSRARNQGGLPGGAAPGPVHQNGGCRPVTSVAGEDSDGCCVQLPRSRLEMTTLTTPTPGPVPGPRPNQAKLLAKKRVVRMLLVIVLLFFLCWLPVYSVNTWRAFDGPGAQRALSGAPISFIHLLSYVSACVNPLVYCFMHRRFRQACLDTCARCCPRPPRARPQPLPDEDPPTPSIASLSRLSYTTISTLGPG
Outline: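 Competitive displacement of 0.3 pmol/well [177Lu]Lu-DOTA-PP-F11N by compounds (10^-10 to 10^-4 M) on AR4-2J cells in BSA-supplemented medium, 3 h at 37 °C. Free label was collected from medium plus PBS rinse, and cell-bound label was recovered with 1 M NaOH, both measured by γ-counter. Each IC50 was determined twice, in triplicate.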

[2] = system: AR4-2J tumor-bearing CB17-SCID mice; assay: Biodistribution in AR4-2J tumor-bearing CB17-SCID mice; type: in vivo; settings: 24 h p.i.
Description: (§1) All animal experiments were conducted in accordance with general animal welfare regulations in Germany (German animal protection act, in the edition of the announcement, dated May 18th, 2006, as amended by Article 280 of June 19th 2020, approval no. ROB-55.2-1-2532.Vet_02-18-109 by the General Administration of Upper Bavaria) and the institutional guidelines for the care and use of animals. CB17-SCID mice of both genders (Charles River Laboratories International Inc., Sulzfeld, Germany) were let to acclimate at the in-house animal facility at least for one week before inoculation was performed. To establish tumor xenografts, AR4-2J cells (5.0 × 10^6 cells per 200 µL) were suspended in a 1/1 mixture (v/v) of Dulbecco modified Eagle medium / Nutrition Mixture F-12 with Glutamax-I (1/1) and Cultrex® Basement Membrane Matrix Type 3 (Trevigen, Gaithersburg, MD, USA) and inoculated subcutaneously onto the right shoulder of 6-10 weeks old CB17-SCID mice (Charles River, Sulzfeld, Germany). Mice were used for experiments when tumors had grown to a volume of 150-300 mm^3 (1-2 weeks after inoculation). Exclusion criteria for animals from an experiment were either a weight loss higher than 20%, a tumor size above 1,500 mm^3, an ulceration of the tumor, a respiratory distress or a change of behavior. None of these criteria applied to any animal from the experiment. Neither randomization nor blinding was applied in the allocation of the experiments. Health status is SPF according to FELASA.
(§2) Approximately 1-5 MBq (100 pmol) of the radiolabeled minigastrin analogues were injected into the tail vein of AR4-2J tumor-bearing female CB17-SCID mice and sacrificed at 1 to 24 h post injection (n = 4-5). Selected organs were removed, weighted and measured in a γ-counter.

[3] = as above; type: in vivo; settings: female, CB17-SCID, mouse, in vivo, iv, 100 pmol, total radioactivity, 24 h p.i., 100 pmol; read-out: activity levels in the tumor
Description: as §1, §2

[4] = n-Octanol-PBS distribution coefficient (logD7.4); type: physicochemical; settings: pH = 7.4, ^177Lu-labeled
Description: Approximately 1 MBq of the labeled tracer was dissolved in 1 mL of a 1/1 mixture (v/v) of phosphate buffered saline (PBS, pH = 7.4) and n-octanol in an Eppendorf tube (1.5 mL). After vigorous mixing of the suspension for 3 min at rt, the vial was centrifuged at 9,000 rpm for 5 min (Biofuge 15, Heraeus Sepatech, Osterode, Germany) and 200 µL aliquots of both layers were measured in a γ-counter. The experiment was repeated at least five times.

CCK-2R [5] = assay: Competition studies in AR4-2J tumor-bearing CB17-SCID mice; type: in vivo; settings: co-administration of excess unlabeled competitor (40 nmol), 24 h p.i.
Description: For competition studies, the radiolabeled compound (approx. 1-5 MBq, 100 pmol) was co-injected with [^natLu]Lu-DOTA-MGS5 (40 nmol) into the tail vein of AR4-2J tumor-bearing CB17-SCID mice and sacrificed at 1 to 24 h post injection (n = 2). Selected organs were removed, weighted and measured in a γ-counter.

CCCC[C@H](NC(=O)[C@H](Cc1c[nH]c2ccccc12)NC(=O)CNC(=O)[C@H](Cc1ccc(O)cc1)NC(=O)[C@H](C)NC(=O)CC[C@@H](NC(=O)CC[C@@H](NC(=O)CC[C@@H](NC(=O)CC[C@@H](NC(=O)CC[C@@H](NC(=O)CC[C@@H](NC(=O)CC[C@@H](NC(=O)CC[C@@H](NC(=O)[C@@H](CNC(=O)c1ccc([Si](F)(C(C)(C)C)C(C)(C)C)cc1)NC(=O)CN1CCN(CC(=O)O)CCN(CC(=O)O)CCN(CC(=O)O)CC1)C(=O)O)C(=O)O)C(=O)O)C(=O)O)C(=O)O)C(=O)O)C(=O)O)C(=O)O)C(=O)N[C@@H](CC(=O)O)C(=O)N[C@@H](Cc1ccccc1)C(N)=O [DOTA-MG-SiFA-23, DOTA-dap(SiFA)-(γ-glu)8- Ala-Tyr-Gly-Trp-Nle-Asp-Phe-NH2]
IC50 (CCK-2R [1]): 4.71 ± 0.62 nM
activity levels in the tumor, fold higher than those of [^177Lu]Lu-DOTA-PP-F11N [2]: more than 8 fold
tissue uptake at 24 h [3]: > 25 %ID/g
logD7.4 (n ≥ 5), ^177Lu-labeled [4]: −2.69 ± 0.06
activity levels in stomach and tumor in competition studies (CCK-2R specificity) (CCK-2R [5]): specific
